Measured values reported in IntAct's records for PubMed 16107882.

B1: Bud site selection protein 14 (Saccharomyces cerevisiae), P27637 (parent)
chain: MSNKEEHVDETSASGVKEVSSIAARHDNGYAPSLITSTSGMDSFQSHALLNDPTLIEDYSDIINNRPTSGSKLTLGNEDSESMGGSVVVTPTSNKSSPFNSKLNILSNAAEKGHDVLRNRDDDKELEEENVEKHMHSNSKRDQRHYKENSSELPDSYDYSDSEFEDNLERRLQEIETDSVDSADKDEVHFSVNNTMNPDVDDFSDGLKYAISEDEDEEENYSDDDDFDRKFQDSGFQGEKDDLEEENDDYQPLSPPRELDPDKLYALYAFNGHDSSHCQLGQDEPCILLNDQDAYWWLVKRITDGKIGFAPAEILETFPERLARLNCWKNENMSSQSVASSDSKDDSISSGNKNQSDAESIIPTPALNGYGKGNKSVSFNDVVGYADRFIDDAIEDTSLDSNDDGGEGNGQSYDDDVDNDKETKVTHRDEYTEAKLNFGKFQDDDTSDVVSDVSFSTSLNTPLNVKKVRRQDNKNESEPKTSSSKDREDDYNANRYVGQEKSEPVDSDYDTDLKKVFEAPRMPFANGMAKSDSQNSLSTIGEFSPSSSEWTNESPSTPIVEESSSIPSSRAIKDISQYIHAKSKIEETTNVENTEGQIQASLGSSGGMANQTDAEQPKEELEKHHSTPEEEKQSTLSLHSSSEEDFYMDEQRAVSSASINSSLSGSRALSNTNMSDPASKPNSLVQHLYAPVFDRMDVLMKQLDEIIRK

Variants of: B1
Conditions: with pp12_yeast GLC7, P32598
Sequence of pp12_yeast GLC7, P32598 (P32598 whole entry): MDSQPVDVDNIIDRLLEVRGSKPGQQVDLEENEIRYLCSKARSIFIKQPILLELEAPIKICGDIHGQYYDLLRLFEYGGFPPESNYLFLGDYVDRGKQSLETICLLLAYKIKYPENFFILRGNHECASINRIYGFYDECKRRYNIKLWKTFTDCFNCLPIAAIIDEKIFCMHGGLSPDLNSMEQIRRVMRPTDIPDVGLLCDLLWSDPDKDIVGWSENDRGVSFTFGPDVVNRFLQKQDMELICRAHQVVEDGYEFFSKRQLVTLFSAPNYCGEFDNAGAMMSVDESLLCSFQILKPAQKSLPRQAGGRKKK

| effect of a mutation on the interaction | Variant |
| --- | --- |
| decreasing interaction | V377A |
| decreasing interaction | F379A |

Variants of: B1
Conditions: with bem2_yeast BEM2, P39960
Sequence of bem2_yeast BEM2, P39960 (P39960 whole entry): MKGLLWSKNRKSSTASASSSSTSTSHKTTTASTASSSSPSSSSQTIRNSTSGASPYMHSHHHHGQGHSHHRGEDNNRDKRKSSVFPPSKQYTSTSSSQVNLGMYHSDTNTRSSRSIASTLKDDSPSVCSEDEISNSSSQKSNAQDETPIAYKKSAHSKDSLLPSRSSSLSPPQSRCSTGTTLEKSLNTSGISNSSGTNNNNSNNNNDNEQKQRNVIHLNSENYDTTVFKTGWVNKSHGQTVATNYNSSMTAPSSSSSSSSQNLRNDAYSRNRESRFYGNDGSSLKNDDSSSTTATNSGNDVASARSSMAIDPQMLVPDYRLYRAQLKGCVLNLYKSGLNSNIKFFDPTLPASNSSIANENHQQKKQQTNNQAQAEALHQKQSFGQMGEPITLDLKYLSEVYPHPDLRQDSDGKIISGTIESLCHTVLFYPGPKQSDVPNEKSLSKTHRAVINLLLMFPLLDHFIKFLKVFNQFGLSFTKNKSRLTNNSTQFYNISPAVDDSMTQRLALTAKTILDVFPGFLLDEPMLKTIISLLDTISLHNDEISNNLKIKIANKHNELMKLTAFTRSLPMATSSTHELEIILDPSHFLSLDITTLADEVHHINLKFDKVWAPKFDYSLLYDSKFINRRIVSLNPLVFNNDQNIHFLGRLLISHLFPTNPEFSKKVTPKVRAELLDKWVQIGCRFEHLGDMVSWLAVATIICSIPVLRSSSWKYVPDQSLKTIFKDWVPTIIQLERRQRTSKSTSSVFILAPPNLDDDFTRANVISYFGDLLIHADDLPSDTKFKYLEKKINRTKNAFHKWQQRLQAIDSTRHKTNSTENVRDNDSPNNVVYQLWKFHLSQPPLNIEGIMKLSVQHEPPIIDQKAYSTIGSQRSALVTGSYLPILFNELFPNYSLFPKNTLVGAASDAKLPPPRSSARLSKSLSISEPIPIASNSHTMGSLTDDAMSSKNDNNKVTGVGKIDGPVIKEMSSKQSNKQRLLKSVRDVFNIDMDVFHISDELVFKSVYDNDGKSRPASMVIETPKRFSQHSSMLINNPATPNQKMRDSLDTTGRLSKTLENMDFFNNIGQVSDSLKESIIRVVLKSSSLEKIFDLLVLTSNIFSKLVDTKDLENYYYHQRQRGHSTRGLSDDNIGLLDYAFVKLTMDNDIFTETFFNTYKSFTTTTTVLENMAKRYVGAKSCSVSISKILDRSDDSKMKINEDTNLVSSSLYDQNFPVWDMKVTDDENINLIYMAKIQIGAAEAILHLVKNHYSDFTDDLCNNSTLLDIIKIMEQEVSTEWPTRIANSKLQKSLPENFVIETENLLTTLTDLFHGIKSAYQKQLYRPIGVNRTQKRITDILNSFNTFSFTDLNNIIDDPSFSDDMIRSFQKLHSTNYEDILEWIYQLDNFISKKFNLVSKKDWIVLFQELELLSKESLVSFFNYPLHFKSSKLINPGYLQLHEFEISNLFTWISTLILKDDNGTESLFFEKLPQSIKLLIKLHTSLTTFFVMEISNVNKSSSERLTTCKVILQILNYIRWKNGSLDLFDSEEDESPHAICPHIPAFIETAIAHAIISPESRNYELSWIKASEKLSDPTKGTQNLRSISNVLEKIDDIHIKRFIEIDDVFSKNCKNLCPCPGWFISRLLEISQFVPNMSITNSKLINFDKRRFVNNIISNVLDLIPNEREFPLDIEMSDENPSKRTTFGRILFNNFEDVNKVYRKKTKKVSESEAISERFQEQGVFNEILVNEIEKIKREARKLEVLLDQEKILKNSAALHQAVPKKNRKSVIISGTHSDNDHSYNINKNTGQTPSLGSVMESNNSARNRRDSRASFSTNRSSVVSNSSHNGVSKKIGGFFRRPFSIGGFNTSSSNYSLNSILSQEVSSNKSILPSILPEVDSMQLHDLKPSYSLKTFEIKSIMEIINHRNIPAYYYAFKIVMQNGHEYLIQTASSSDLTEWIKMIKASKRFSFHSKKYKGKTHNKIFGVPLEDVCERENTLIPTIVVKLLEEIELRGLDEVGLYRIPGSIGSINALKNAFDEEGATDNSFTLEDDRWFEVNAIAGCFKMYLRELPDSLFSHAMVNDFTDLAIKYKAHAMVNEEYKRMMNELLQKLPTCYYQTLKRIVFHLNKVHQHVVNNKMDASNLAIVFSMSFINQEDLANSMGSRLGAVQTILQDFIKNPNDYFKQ

| effect of a mutation on the interaction | Variant |
| --- | --- |
| decreasing interaction | F379A |
